Data published in article PMC6828549 (Nature structural & molecular biology, 2019).

Target: T1, His6-Nxf2 (full length), recombinant from insect cells (Drosophila melanogaster, UniProt Q9VV73 1-841)
T1 sequence: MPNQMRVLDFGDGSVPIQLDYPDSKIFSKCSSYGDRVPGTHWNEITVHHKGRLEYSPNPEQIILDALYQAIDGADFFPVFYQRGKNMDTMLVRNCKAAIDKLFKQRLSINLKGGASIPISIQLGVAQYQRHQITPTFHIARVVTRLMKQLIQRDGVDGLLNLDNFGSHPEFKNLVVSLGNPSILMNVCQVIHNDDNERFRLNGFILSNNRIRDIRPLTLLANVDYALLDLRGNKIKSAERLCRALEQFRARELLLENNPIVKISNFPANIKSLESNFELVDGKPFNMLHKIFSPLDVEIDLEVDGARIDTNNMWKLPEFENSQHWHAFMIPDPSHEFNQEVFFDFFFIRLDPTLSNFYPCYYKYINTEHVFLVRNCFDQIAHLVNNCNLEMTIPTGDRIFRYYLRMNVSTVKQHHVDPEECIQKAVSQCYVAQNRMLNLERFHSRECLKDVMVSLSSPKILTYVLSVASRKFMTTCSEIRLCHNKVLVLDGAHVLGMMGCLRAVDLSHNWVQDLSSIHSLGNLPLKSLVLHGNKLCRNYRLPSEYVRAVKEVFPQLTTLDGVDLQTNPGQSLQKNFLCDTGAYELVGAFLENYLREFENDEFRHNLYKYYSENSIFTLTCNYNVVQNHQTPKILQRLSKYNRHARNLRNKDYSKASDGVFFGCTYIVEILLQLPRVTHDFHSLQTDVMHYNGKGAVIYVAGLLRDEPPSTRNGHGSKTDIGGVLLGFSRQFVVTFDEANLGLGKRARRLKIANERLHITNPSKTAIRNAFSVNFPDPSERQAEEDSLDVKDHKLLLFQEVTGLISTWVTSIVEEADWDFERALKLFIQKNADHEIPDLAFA
Assay: pull-down + SEC

B1: Strep-tagged Panoramix fragment (263–446) (domain or fragment)
chain: ASSQNESSKERKLRDTELDYVPVRPDEHFIRPIKFSNLIERRPPQVEFNTVNLSKADKRSLAVARAELVLEQIQQKANKEEPPEFHMVDTICKLPVNESFRNQDCFENPSPICNNMNVVYKFNSTPGTRIDLSKWGLETVPEATKRLLRLLGIDVARLKELQSTVKPSQRILKLKKEQLEQGLA
Question: Does B1 bind?
Answer: Result: binds
